Results taken from patent US20220033501A1 (SHANGHAI PHARMAEXPLORER, published 2022).

T1: murine TIM-3 protein with hFc tag (mTIM-3-hFc protein) (mouse; human, UniProt Q8VIM0 29-191)
T1 construct: Made in HEK293 cells; also called mouse TIM-3 extracellular domain protein; not shown: human IgG Fc fragment (hFc) of the pCpC vector
T1 chain: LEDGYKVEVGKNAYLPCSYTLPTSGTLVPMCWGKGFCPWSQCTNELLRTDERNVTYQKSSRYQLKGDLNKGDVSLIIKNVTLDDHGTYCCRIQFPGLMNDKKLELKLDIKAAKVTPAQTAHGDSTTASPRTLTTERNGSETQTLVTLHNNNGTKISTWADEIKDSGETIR

T2: human TIM-3 protein with hFc tag (hTIM-3-hFc protein) (human, UniProt Q8TDQ0 22-200)
T2 construct: also called immunogen 1; human TIM-3 extracellular domain protein; not shown: human IgG Fc fragment (hFc) of the pCpC vector
T2 sequence: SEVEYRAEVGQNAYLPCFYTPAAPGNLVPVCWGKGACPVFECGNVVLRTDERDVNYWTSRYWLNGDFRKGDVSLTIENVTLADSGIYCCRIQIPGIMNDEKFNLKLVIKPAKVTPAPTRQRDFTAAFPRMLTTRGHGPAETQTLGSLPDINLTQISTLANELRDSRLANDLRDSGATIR

T3: monkey TIM-3 extracellular domain protein with hFc tag (cTIM-3-hFc) (monkey)
T3 construct: not shown: human IgG Fc fragment (hFc) of the pCpC vector
T3 chain: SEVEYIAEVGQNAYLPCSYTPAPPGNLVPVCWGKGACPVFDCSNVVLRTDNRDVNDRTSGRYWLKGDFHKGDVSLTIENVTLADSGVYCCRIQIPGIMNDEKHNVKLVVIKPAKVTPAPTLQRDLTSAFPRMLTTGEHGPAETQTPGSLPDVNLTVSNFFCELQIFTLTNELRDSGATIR

T4: monkey TIM-3 on CHOK1 stable cell line (CHOK1-cTIM-3) (monkey)
T4 chain: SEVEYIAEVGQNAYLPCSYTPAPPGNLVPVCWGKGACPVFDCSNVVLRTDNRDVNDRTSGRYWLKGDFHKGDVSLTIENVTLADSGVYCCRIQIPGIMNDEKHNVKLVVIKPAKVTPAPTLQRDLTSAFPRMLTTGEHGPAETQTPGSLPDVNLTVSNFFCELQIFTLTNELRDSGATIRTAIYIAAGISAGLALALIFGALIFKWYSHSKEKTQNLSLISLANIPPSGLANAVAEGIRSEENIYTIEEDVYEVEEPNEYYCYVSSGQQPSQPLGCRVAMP

T5: murine TIM-3 extracellular domain protein with hFc tag (mTIM-3-hFc) (mouse, UniProt Q8VIM0 29-191)
T5 construct: also called mouse TIM-3 extracellular domain protein; not shown: human IgG Fc fragment (hFc) of the pCpC vector
T5 chain: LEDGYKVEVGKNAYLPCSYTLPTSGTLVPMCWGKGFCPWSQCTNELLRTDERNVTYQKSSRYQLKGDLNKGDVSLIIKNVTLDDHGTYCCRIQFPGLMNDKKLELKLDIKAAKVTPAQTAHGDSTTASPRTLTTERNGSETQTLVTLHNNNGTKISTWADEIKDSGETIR

T6: human TIM-3 on CHOK1 stable cell line (CHOK1-hTIM-3) (human, UniProt Q8TDQ0 22-301)
T6 sequence: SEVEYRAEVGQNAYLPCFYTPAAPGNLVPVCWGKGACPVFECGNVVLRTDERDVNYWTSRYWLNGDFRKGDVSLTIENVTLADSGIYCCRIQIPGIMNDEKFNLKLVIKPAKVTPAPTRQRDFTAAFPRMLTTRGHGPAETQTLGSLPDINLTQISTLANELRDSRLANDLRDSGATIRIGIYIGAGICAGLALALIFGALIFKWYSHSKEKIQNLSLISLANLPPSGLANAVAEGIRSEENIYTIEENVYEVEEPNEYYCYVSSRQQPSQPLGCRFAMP


Columns and labels:
[1] = molecular target: T1, murine TIM-3 protein with hFc tag …; assay: ELISA, coated mTIM-3-hFc; antibody 0.0667 nM
Source text: (§1) The amino acid sequence 22-200 of the extracellular domain of the human TIM-3 protein described in the step of Example 1 (as shown in SEQ ID NO. 71 in the sequence listing) was cloned into a pCpC vector having a human IgG Fc fragment (hFc), and transfected into HEK293 cells. The cell culture medium was collected, and purified to obtain the human TIM-3 protein with hFc tag (herein referred to as hTIM-3-hFc protein). The amino acid sequence 22-201 of the extracellular domain of the monkey TIM-3 protein (as shown in SEQ ID NO. 72 in the sequence listing) was cloned into a pCpC vector having a human IgG Fc fragment (hFc), and transfected into HEK293 cells. The cell culture medium was collected, and purified to obtain the monkey TIM-3 protein with hFc tag (herein referred to as cTIM-3-hFc protein). […] The cell culture medium was collected, and purified to obtain the murine TIM-3 protein with hFc tag (herein referred to as mTIM-3-hFc protein). Purified human, monkey, and mouse TIM-3 extracellular domain proteins (hTIM-3-hFc, cTIM-3-hFc, and mTIM-3-hFc) were diluted with PBS to a final concentration of 1.0 μg/ml and then added to a 96-well ELISA plate with 100 μl per well. The plate was sealed with plastic film and incubated overnight at 4° C. The plate was washed 4 times with the plate washing solution (PBS+0.01% Tween20) on the next day, and added with the blocking solution (PBS+0.01% Tween20+1% BSA) and sealed at room temperature for 1-2 hours. The blocking solution was poured out. 50-100 μl of the antibody sample to be tested was added to each well. The plate was incubated at 37° C. for 1-2 hours, and washed 2-3 times with plate washing solution (PBS+0. 01% Tween20). HRP (horseradish peroxidase) labeled secondary antibody was added. The plate was incubated at 37° C. for 1-2 hours, and washed 2-3 times with plate washing solution (PBS+0. 01% Tween20). […] of TMB substrate was added to each well. After incubated at room temperature for 15-30 minutes, the plate was added with […] stop solution (1.0N HCl) to each well. An ELISA plate reader (TiterMax 384plus, Molecular Device) was used to read the A450 nm value.

[2] = molecular target: T1, murine TIM-3 protein with hFc tag …; assay: ELISA, coated mTIM-3-hFc; antibody 0.0001 nM
Source text: as §1

[3] = molecular target: T2, human TIM-3 protein with hFc tag …; assay: ELISA, coated hTIM-3-hFc; antibody 0.6667 nM
Source text: as §1

[4] = molecular target: T3, monkey TIM-3 extracellular domain …; assay: ELISA, coated monkey TIM-3 ECD protein, 0.6667 nM antibody
[5] = molecular target: T4, monkey TIM-3 on CHOK1 stable cell line …; assay: FACS, CHOK1-cTIM-3 cells, 8 nM antibody
[6] = molecular target: T5, murine TIM-3 extracellular domain …; assay: ELISA, coated mouse TIM-3 ECD protein, 0.0067 nM antibody
[7] = molecular target: T6, human TIM-3 on CHOK1 stable cell line …; assay: FACS, CHOK1-hTIM-3 cells, 0.32 nM antibody
[8] = molecular target: T4, monkey TIM-3 on CHOK1 stable cell line …; assay: FACS, CHOK1-cTIM-3 cells, 0.32 nM antibody

Binder | OD450 [1] | OD450 [2] | OD450 [3] | OD450 [4] | Mean fluorescence intensity [5] | OD450 [6] | Mean fluorescence intensity [7] | Mean fluorescence intensity [8]
34B6D8 (TIM-3 antibody purified from hybridoma, chimeric antibody of Example 2) (antibody, V domains shown, From hybridoma of Harbour H2L2 transgenic mice: human variable regions, rat constant regions) VH: EVQLVESGGGLVQPGGSLRLSCAASGFTFSTYWMTWVRQAPGKRLEWVANIKQGGGDKYYVDSVKGRFTISTDNAKNSLYLQMNSLRAEDTAVYYCARGSNWFDPWGQGTLVTVSS VL: EIVMTQSPATLSMSPGERATLSCRASQSVYDNLAWYQQKPGQAPRLLIYGASTRATGIPARFSGSGSGTEFTLTISSLQSEDFALYYCQQYTHWPITFGQGTRLEIK | 0.68 | 0.62 | 3.41 |  |  |  |  | 
7A4F10 fully human TIM-3 antibody (human IgG4, kappa) (antibody, V domains shown) VH: EVQLLESGGGLVQPGGSLRLSCAASGFTFRTHLISWVRQAPGKGLEWVAAITGSGGSTYYADSVKGRFIISRDNSKNTLFLQMNSLRAEDTAVYYCAKDGGSGSYDDFWGQGTLVTVSS VL: ETVLTQSPVTLSLSPGERATLSCRASQSVGSYLAWYQQKPGQAPRLLIYDASNRATGIPARFSGSGSGTDFTLTISSLEPEDFAVYYCQQRSNWPPTFGQGTKVEIK |  |  |  | 2.46 | 325 | 0.23 | 90.1 | 52.7
7A4F10 (TIM-3 antibody purified from hybridoma, chimeric antibody of Example 2) (antibody, V domains shown, From hybridoma of Harbour H2L2 transgenic mice: human variable regions, rat constant regions) VH: EVQLLESGGGLVQPGGSLRLSCAASGFTFRTHLISWVRQAPGKGLEWVAAITGSGGSTYYADSVKGRFIISRDNSKNTLFLQMNSLRAEDTAVYYCAKDGGSGSYDDFWGQGTLVTVSS VL: ETVLTQSPVTLSLSPGERATLSCRASQSVGSYLAWYQQKPGQAPRLLIYDASNRATGIPARFSGSGSGTDFTLTISSLEPEDFAVYYCQQRSNWPPTFGQGTKVEIK | 0.62 | 0.65 | 0.86 |  |  |  |  | 
57F4E5 fully human TIM-3 antibody (human IgG4, kappa) (antibody, V domains shown) VH: EVQLVESGGGLVQPGGSLRLSCAASGFTFSSYWMSWVRQAPGKGLEWVANIKQDGSEKYYVDSVKGRFTISRDSAKNSLYLQMNSLRAEDTAMYFCARDSNFFDYWGQGTLVTVSS VL: ETVMTQSPATLSVSPGERATLSCRASQSVSSNLAWYQRKPGQAPRLLIYFSSTRATGIPARFSGSGSGTEFTLTISSLQSEDFAVYYCQQYNNWPLTFGGGTKVEIK |  |  |  | 3.15 | 259 | 0.23 | 69.7 | 80.6
57F4E5 (TIM-3 antibody purified from hybridoma, chimeric antibody of Example 2) (antibody, V domains shown, From hybridoma of Harbour H2L2 transgenic mice: human variable regions, rat constant regions) VH: EVQLVESGGGLVQPGGSLRLSCAASGFTFSSYWMSWVRQAPGKGLEWVANIKQDGSEKYYVDSVKGRFTISRDSAKNSLYLQMNSLRAEDTAMYFCARDSNFFDYWGQGTLVTVSS VL: ETVMTQSPATLSVSPGERATLSCRASQSVSSNLAWYQRKPGQAPRLLIYFSSTRATGIPARFSGSGSGTEFTLTISSLQSEDFAVYYCQQYNNWPLTFGGGTKVEIK | 0.64 | 0.63 | 3.31 |  |  |  |  | 
18D2H2 (TIM-3 antibody purified from hybridoma, chimeric antibody of Example 2) (antibody, V domains shown, From hybridoma of Harbour H2L2 transgenic mice: human variable regions, rat constant regions) VH: EVQLVESGGDLVQPGGSLRLSCAASGFTFSTYWMTWVRQAPGRGLEWVANIKQDGSAKYYVDSVKGRFTLSRDDAKNSLYLQMNSLRAEDTAVYYCARGSNWFDYWGQGTLVTVSS VL: ETVMTQSPATLSVSPGERATLSCRANQNVYSNLAWYQQKPGQAPRLLIYDASTRATGFPARFSGSGSGTEFTLTISSLQSEDFAVYYCQQYNNWPLTFGGGTKVEIK | 0.67 | 0.64 | 1.33 |  |  |  |  | 
134H3G6 fully human TIM-3 antibody (human IgG4, kappa) (antibody, V domains shown) VH: EVQLVESGGGLVQPGGSLRLSCAASGFTFSNSWMTWVRQAPGKGLEWVANIKQAGTEKYYVDSVKGRFTISRDNAKNSLYLQMNSLRAEDTAVYYCNSGSNYFDYWGQGTLVTVSS VL: EIVMTQSPATLSVSPGERATLSCRARQNFYSNLAWYQQKPGQAPRLLIYGASTRATGIPARFSGSGSGTEFTLTISSLQSEDFAVYYCQQYNNWPLTFGGGTKVEIK |  |  |  | 3.1 | 401 | 0.22 | 96.6 | 134
134H3G6 (TIM-3 antibody purified from hybridoma, chimeric antibody of Example 2) (antibody, V domains shown, From hybridoma of Harbour H2L2 transgenic mice: human variable regions, rat constant regions) VH: EVQLVESGGGLVQPGGSLRLSCAASGFTFSNSWMTWVRQAPGKGLEWVANIKQAGTEKYYVDSVKGRFTISRDNAKNSLYLQMNSLRAEDTAVYYCNSGSNYFDYWGQGTLVTVSS VL: EIVMTQSPATLSVSPGERATLSCRARQNFYSNLAWYQQKPGQAPRLLIYGASTRATGIPARFSGSGSGTEFTLTISSLQSEDFAVYYCQQYNNWPLTFGGGTKVEIK | 0.65 | 0.64 | 0.69 |  |  |  |  | 
39E5H1 (TIM-3 antibody purified from hybridoma, chimeric antibody of Example 2) (antibody, V domains shown, From hybridoma of Harbour H2L2 transgenic mice: human variable regions, rat constant regions) VH: EVQLVESGGGLVQPGGSLRLSCAASGFTFSSYWMSWVRQAPGKGLEWVANIKRGGSERYYVDSVKGRFTISGDNAKNSVYLQMNSLRAEDTAVYYCARGSNWFDPWGQGTLVTVSS VL: ETVMTQSPAILSVSPGERATLSCRASQSVYSNLAWYQQKLGQAPRLLIYDASTRATGIPARFSGSGSGTEFTLTISSLQSEDFAVYYCQQYNNWPITFGQGTRLEIK | 0.68 | 0.64 | 3.41 |  |  |  |  | 
215A8F2 fully human TIM-3 antibody (human IgG4, kappa) (antibody, V domains shown) VH: QVQLQQWGAGLLKPSETLSLTCTVYGGSFSGYYWNWIRQPPGKGLEWLGEINHSGSTNYNPSLKRRVTISVDTSKNQFSLKLSSVTAADTAVYYCARVYYYGPFDFWGQGTLVTVSS VL: not shown |  |  |  | 3.05 | 362 | 0.22 | 73.6 | 92.5
215A8F2 (TIM-3 antibody purified from hybridoma, chimeric antibody of Example 2) (antibody, V domains shown, From hybridoma of Harbour H2L2 transgenic mice: human variable regions, rat constant regions) VH: QVQLQQWGAGLLKPSETLSLTCTVYGGSFSGYYWNWIRQPPGKGLEWLGEINHSGSTNYNPSLKRRVTISVDTSKNQFSLKLSSVTAADTAVYYCARVYYYGPFDFWGQGTLVTVSS VL: not shown | 0.67 | 0.63 | 3.06 |  |  |  |  | 
